The text below walks through data of the nanobody polyreactivity screen of Harvey et al. (2022).

A short description of this data set: yeast display, Sf9 membrane polyspecificity reagent, FACS + sequencing; frameworks hold sequencing errors. The method, boiled down:
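After 36–48 hours of galactose induction, yeast (Saccharomyces cerevisiae BJ5465) displaying a synthetic nanobody library were stained at 4 °C for 1 hour with 10% biotinylated, detergent-solubilized Sf9 membrane reagent. Streptavidin microbeads enriched the stained cells before FACS sorting into low and high (top ~1%) gates on anti-HA and streptavidin fluorescence. Each clone's polyreactivity label reflects its gate of origin.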
Turning to “QVQLVESGGGLVQAGGSLRLSCAASGRIFEYYAMGWYRQAPGKERELVAAINTGGNTYYADSVKGRFTISRDNAKNTVYLLMNSLKPEDTAVYYCATYPIWYGGYLSGTDYDYWGQGTQVTVSS”, the “polyreactivity (PSR sort gate)” value is given as “low polyreactivity”.

Turning to “QVQLVESGGGLVQAGGSLRLSCAASGRIFEYYVMGWYRQAPGKERELVAAINRRGTSTYYADSVKGRFTISRDNAKNTVDLQMNSLKPEDTAVYYCAAVDRDYARTTTYDYCGQGTQVTVSS”, the “polyreactivity (PSR sort gate)” value is on record as “high polyreactivity”. Then “QVQLVESGGGLVQAGGSLRLSCAASGRIFFGNAMGWYRLAPGKEREFVAAITWRGGNTYYADSVKGRFTISRDNAKNTVYLQMNSLKPEDTAVYDCNASPSEVRRRYDYWGQGTQVTVSS”, with “high polyreactivity”; and “QVQLVESGGGLVQAGGSLRLSCAASGRIFFGYAMGWYRPAPGKEREFVAAINWIGGRTYYAASVKGRFTISRDNAKNTVYLQMNSLKPEDTAVYYCAKEVSPYWTFDYWGQGTQVTVSS”, with “low polyreactivity”. Then “QVQLVESGGGLVQAGGSLRLSCAASGRIFFGYAMGWYRPAPGKERVLVAAISSRGGSTYYADSVKGRFTISRDNAKNTVYLKMNSLKPEDTAVYYCARKRYKRSTRTEFGYWGQGTQVTVSS”, with “high polyreactivity”; and “QVQLVESGGGLVQAGGSLRLSCAASGRIFFGYAMGWYRQAPGKEREFVAAINWIGGRTYYADSVKGRFTISRDNAKNTVYLQMNSLKPEDTAVYYCAKEVSPYWTFDYWGQGSQVTVSS”, with “low polyreactivity”. Then “QVQLVESGGGLVQAGGSLRLSCAASGRIFFGYAMGWYRQAPGKEREFVAAITRRGGSTYYADSVKGRFTISRDNAKNTVYLQMNSLKPEDTADYYCAKDTIGGASPHYYWGQGTQVTVSS”, with “high polyreactivity”. As to “QVQLVESGGGLVQAGGSLRLSCAASGRIFFIYAMGWYRQAPGKERELVAAISYDSGSTYYADSVKGRFTISRDNAKNTVYLQMNSLKPEDTAVYYCAAEWGLVIYSTYGYDYWGQGTQVTVSS”, the “polyreactivity (PSR sort gate)” value is on record as “low polyreactivity”. Then “QVQLVESGGGLVQAGGSLRLSCAASGRIFFIYPMGWYRQAPGKERELVAGINRTGGSTYYADSVKGRFTISRDNAKNTVYLQMNSLKPEDTAVYYCAAVSYYASDYRYDYWGQGTQVTVSS”, with “low polyreactivity”; and “QVQLVESGGGLVQAGGSLRLSCAASGRIFFLNTMGWYRQAPGKERELVAAITRGGSTYYADSVKGRFTISRDNAKNTVYLHMNSLKPEDTAVYYCAADVYGGIGYDYWGQGTQVTVSS”, with “low polyreactivity”; and “QVQLVESGGGLVQAGGSLRLSCAASGRIFFLNTMGWYRQAPGTERELVAAITRGGSTYYADSVKGRFTISRDNAKNTVYLQMNSLKPEDTAVYYCAADVYGGIGYDYWGQGTQVTVSS”, with “low polyreactivity”. Then “QVQLVESGGGLVQAGGSLRLSCAASGRIFFRNALGWYRQAPGKERELVAVINTGGSTNYADSVKGRFTISRDNAKNTVYLQMNSLTPEDTAVYYCAVDRASRRTYNQYGYWGQGTQVTVSS”, with “high polyreactivity”; and “QVQLVESGGGLVQAGGSLRLSCAASGRIFFSYAMGWYRQAPGKERELVAAISRSGGRTYYADSVKGRFTISRDNAKNTVYLQMNSLKPEDTAVYYCAASSISSLYYDYWGQGTQVTVSS”, with “high polyreactivity”. For “QVQLVESGGGLVQAGGSLRLSCAASGRIFFVNAMGWSRQAPGKERELVAAISRGGSTNYADSVKGRFTISRDNAKNTVYLQMNSLKPEDTAVYYCNADGSSYWYPVPLDGGDYWGQGTQVTVSS”, the “polyreactivity (PSR sort gate)” value is on record as “low polyreactivity”. Then “QVQLVESGGGLVQAGGSLRLSCAASGRIFFYNVMGWYRQAHGKERELVAAITTIGGSTYYADSVKGRFTISRDNAMNTVYLQMNSLKPEDTAVYYCAAGWVTNSDGMDYWGQGTQVTVSS”, with “low polyreactivity”. Then “QVQLVESGGGLVQAGGSLRLSCAASGRIFFYNVMGWYRQAPGKERELVAAITTIGGSTYYADSVKGRFTISRDNAKNTVYLQMNSLKPEDTAVYYCAAGWVTNSDGMDYWGQGTQVTVSS”, with “low polyreactivity”.

On to “QVQLVESGGGLVQAGGSLRLSCAASGRIFFYYAMGWYRQAPGKERELVAAISKSGGRTYYADSVKGRFTISRDNAKNTVYLQMNSLKPEDTAVYYCAAYSAHDSDYWGQGTQVTVSS”, for which the “polyreactivity (PSR sort gate)” value was “high polyreactivity”. Then “QVQLVESGGGLVQAGGSLRLSCAASGRIFFYYAMGWYRQAPGKERELVATITASGDSTYYADSVKGRFTISRDNAMDTVYLQMNSLKPEDTAVYYCAADDGDYYEVDYWGQGTQVTVSS”, with “low polyreactivity”.

For the sequence “QVQLVESGGGLVQAGGSLRLSCAASGRIFFYYVMGWYRQAPGKERELVAAITRSGGSTYYADSVKGRFTISRDNAKNTVYLQMNSLKPEDTAVYYCAVGDGFEYDWGQGTQVTVSS”, the “polyreactivity (PSR sort gate)” value is given as “low polyreactivity”. Then “QVQLVESGGGLVQAGGSLRLSCAASGRIFGANAMGWSRQAPGKERELVATITYVGTSTYYADSVKGRFTISRDNAKNTVYLQMNSLKPEDTAVYYCAADGYSVFAAILGEYFDYDYWGQGSQVTVSS”, with “low polyreactivity”; and “QVQLVESGGGLVQAGGSLRLSCAASGRIFGAYAMGWYRPAPGKERELVAAITGGDSTYYADSVKGRFTISRDNAKNTVYLQMNSLKPEDTAVYYCAADLTPEGVLQLGKYINYDSWGQGTQVTVSS”, with “low polyreactivity”; and “QVQLVESGGGLVQAGGSLRLSCAASGRIFGAYAMGWYRQAPGKERELVAAIDIRGGNTYYADSVKGRFTISRDNAKNTVYLQMNSLKPEDTAVYYCAADTWYDAYNYWGQGTQVNVSS”, with “low polyreactivity”.

As for “QVQLVESGGGLVQAGGSLRLSCAASGRIFGDNAMGWYRQAPGKERELVADITSSGGSTHYADSVKGRFTISRDNAKNNVYLQLNSLKPEDTEVYYCNADDYVYFDDGDYWGQGTQVTVSS”, the “polyreactivity (PSR sort gate)” value is on record as “low polyreactivity”. Then “QVQLVESGGGLVQAGGSLRLSCAASGRIFGEYAMGWYSQAPGKERELVASISSGGNTNYADSVKGRFTISRDNAKNTFYLQMNSLKPEDTAVYYCAADDYATPQKMDYWGQGTQVTVSS”, with “high polyreactivity”. Then “QVQLVESGGGLVQAGGSLRLSCAASGRIFGFYALGWYRQAAGKEWELVAAISQSRGSTYYADSVKGRFTISRDTANNTVYLQMNSLKPEDTAVYYCAKGYKYGKNIYYYWGQGTQVTVSS”, with “high polyreactivity”. Then “QVQLVESGGGLVQAGGSLRLSCAASGRIFGFYAMGWYRQAPGKERELVARISSRGGSTYYADSVKGRFTISRDNAKNTVYLQMNSLKPEDTAVYYCAAYVWYHQYHYVPMDYWGQGTQVTVSS”, with “high polyreactivity”; and “QVQLVESGGGLVQAGGSLRLSCAASGRIFGFYAMGWYRQAPGKERELVARITLSGGRTYYADSVKGRFTISRDNAKNTVYLQMNSLKPEDTEVYYCAADSIGRLWGYGYWGQGTQVTVSS”, with “high polyreactivity”. As for “QVQLVESGGGLVQAGGSLRLSCAASGRIFGGNAMGWYRQAPGKERELVAAITSGGGSTSYADSVKGRFTISRDNAKNTVYLQMNSLKPEDTAVYYCAAPATYGPFVIDTVYPRDGYWGQGTQVTVSS”, the “polyreactivity (PSR sort gate)” value is recorded as “low polyreactivity”. Then “QVQLVESGGGLVQAGGSLRLSCAASGRIFGGYAMGGYRQAPGKERELVAAISSRGTRTYYADSVKGRITISRDNAKNTVYLQMNSLKPEDTAVYYCATAYRGFHYSPLRELDYWGQGTQVTVSS”, with “high polyreactivity”; and “QVQLVESGGGLVQAGGSLRLSCAASGRIFGGYAMGWYRPAPGKERELVAAISGGGSTNYADSVKGRFTISRDNAKNTVYLQMNSLKPEDTAVYYCAAQYWSRRFYWYGYWGQGTQVTVSS”, with “high polyreactivity”. Then “QVQLVESGGGLVQAGGSLRLSCAASGRIFGGYAMGWYRQAPGKERELVAAISARGGSTYYADSVKGRFTISRDNAKNTVYLQMNSLKPEDTAVYYCAAAEASSRGYYDYDYWGQGTQVTVSS”, with “low polyreactivity”; and “QVQLVESGGGLVQAGGSLRLSCAASGRIFGGYAMGWYRQAPGKERELVAAISNGGRTNYADSVKGRFTISRDNAKNTVYLQMISLKPEDTAVYYCAARNYKPYGYYRIYDSWGQGTQVTVSS”, with “high polyreactivity”; and “QVQLVESGGGLVQAGGSLRLSCAASGRIFGGYAMGWYRQAPGKERELVAAITFRSGTTYYADSVKGRFTISRDNAKNTVYLQMNSLKPEDTAVYYCAARWGPYAFTYVRTYDYWGQGTQVTVSS”, with “low polyreactivity”. For the sequence “QVQLVESGGGLVQAGGSLRLSCAASGRIFGGYAMGWYRQAPGKERELVAAITQSGGSTYYADSVKGRFTISRDNAKNTVYLQMNSLKPEDTAVYYCATYAWYIFGYWGQGTQVTVSS”, the “polyreactivity (PSR sort gate)” value is “low polyreactivity”. Then “QVQLVESGGGLVQAGGSLRLSCAASGRIFGGYAMGWYRQAPGKERELVAVITDGGSTNYADSVKRRFTISRDNAKNTVYLQMNSLKPEDTAVYYCAADSDGDEPPYDYWGQGTQVTVSS”, with “low polyreactivity”. Regarding “QVQLVESGGGLVQAGGSLRLSCAASGRIFGGYVMGWYRQAPGKERELVAAISKRGDSTYYADSVKGRFTISRDNAKHTVYLQMNSLKPEDTAVYYCAAVRRGDRGTDMDYWGQGTQVTVSS”, the “polyreactivity (PSR sort gate)” value is “high polyreactivity”. For “QVQLVESGGGLVQAGGSLRLSCAASGRIFGHNAMGWYRQAPGKERELVARISSTGSTKYADSVKGRFTISRDNAKNTVYFQMNSLKPEDTAVYYCAAVDRLRSIRYDYWGQGTQVTVSS”, the “polyreactivity (PSR sort gate)” value is listed as “high polyreactivity”. Then “QVQLVESGGGLVQAGGSLRLSCAASGRIFGHYVMGWYRQAPGKERELVAAITWRGGSTYYADSVKGRFTISRDNAKNTVYLQMNSLKPEDTAVYYCNRALPGYGLRRDYWGQATQVTVSS”, with “high polyreactivity”. Then “QVQLVESGGGLVQAGGSLRLSCAASGRIFGINGMGWYRQAPGKERELVAAITWIGGRTYYADSVKGRFTISRDNAKNTVYLQMNSLKPEDTAVYYCNAVYTQRFATYRRYDYWGQGTQVTVSS”, with “high polyreactivity”; and “QVQLVESGGGLVQAGGSLRLSCAASGRIFGIYAMGWFRLAPWKERELVARITGGGSTNYADSLKGRFTISRDNAKNTVYFQMTSLKPEDTAVYYCNTKKLPYAEGYWGQGTQVTVSS”, with “low polyreactivity”. Turning to “QVQLVESGGGLVQAGGSLRLSCAASGRIFGIYAMGWYRHAPGKERELVATITWSGGSTYYADSVKGRFTISRDNAKNTVYLQMNSLKPEDTAVYYCAAYYRQFFGWYDYWGQGTQVTVSS”, the “polyreactivity (PSR sort gate)” value is on record as “high polyreactivity”.
